# Measurements: patent US8871276B2, “Beta-casein assemblies for mucosal delivery of therapeutic bioactive agents” (Technion Research and Development Foundation Ltd., priority 2008, dated 2014)
# B1: β-casein: bovine β-casein self-assembled into unloaded micelles in acidic or neutral buffer (protein, UniProt P02666 16-224, looked up)
# Beta-casein: RELEELNVPGEIVESLSSSEESITRINKKIEKFQSEEQQQTEDELQDKIHPFAQTQSLVYPFPGPIPNSLPQNIPPLTQTPVVVPPFLQPEVMGVSKVKEAMAPKHKEMPFPKYPVEPFTESQSLTLTDVENLHLPLPLLQSWMHQPHQPLPPTVMFPPQSVLSLSQSKVLPVPQKAVPYPQRDMPIQAFLLYQEPVLGPVRGPFPIIV
# modifications: self-assembled micelles
# notes: bovine β-casein self-assembled into unloaded micelles in acidic or neutral buffer
# How the values were obtained:
# Assay type in all cases: physicochemical
# [1] = Density measurements of β-casein solutions (density meter DMA 5000); conditions: 20 mg/ml β-casein, pH 2.6, lactic acid solution
# Procedure: The specific gravity of the solvents and the protein solutions was measured by a density meter DMA 5000 from Anton-Paar at various temperatures. These measurements enabled an accuracy of six digits.
# Density measurements of the β-casein solutions at pH 2.6 as a function of temperature are summarized in Table 1 Density measurements were performed using a density meter DMA 5000 from Anton-Paar, reaching an accuracy of six digits.
# Cryo-TEM of micelles = test: Cryo-TEM of micelles
# Procedure: Specimens were prepared either in an automated vitrification device (Vitrobot, FEI, The Netherlands) or in the controlled environment vitrification system (CEVS) (Bellare et al. Electron Microsc. Technique, 1988, 10; 87-111) at 24° C. and 100% relative humidity to avoid loss of volatiles. Using the latter, the solutions were incubated in the CEVS at the desired temperature for 1 h. Then, a 7 μL drop of each solution was placed on a TEM copper grid covered with a perforated carbon film (Pelco International) and blotted with filter paper to form a thin liquid film of the sample (100-200 nm thick). The thinned sample was plunged into liquid ethane at its freezing temperature (−183° C.) to form a vitrified specimen and then transferred to liquid nitrogen ([…]) for storage. Some of the vitrified specimens were examined in a Philips CM120 transmission electron microscope. (Philips, The Netherlands) operating at an accelerating voltage of 120 kV. An Oxford CT3500 (Oxford Instruments) cryo-specimen holder that maintained the specimens below −175° C. during sample transfer and observation Other specimens were examined in a Tecnai 12 G2 TEM (FEI) using a Gatan 626 cryo-holder. Specimens were studied in a low-dose imaging mode to minimize beam exposure and electron beam radiation damage.
# Images were recorded digitally on a cooled Gatan MultiScan 791 CCD camera using DigitalMicrograph 3.1 software (Gatan) in the low-dose imaging mode to minimize beam exposure and electron-beam radiation damage. Alternatively, images were recorded in the Tecnai on a high-resolution 2 k×2 k Ultrascan 1000 cooled CCD (Gatan, UK), using the Digital Micrograph 3.6 software (Gatan, UK).
# The structural characteristics of the micelles in the two pH environments were studied by cryo-TEM and SAXS (Small Angle X-ray Scattering). Cryo-TEM was used to determine the shape of the micelles and to estimate their dimensions between 4 and 40° C. This information was further used to accurately calculate the micelles' dimensions from the SAXS data, and to study how the size and shape are affected by temperature. […]
# [2] = Small angle X-ray scattering (SAXS) of micelles
# Procedure: The small angle X-ray scattering equipment consisted of a SAXSess camera (Anton-Paar, Graz, Austria) connected to an X-ray generator (Philips, PW 1730/10) operating at 40 kV and 50 mA with a sealed-tube Cu anode. A Gael mirror was used to convert the divergent polychromatic X-ray beam into a focused line-shaped beam of Cu Kα radiation (λ=0.154 nm). The 2D scattering pattern was recorded by a PI-SCX fused fiber optic taper CCD camera from Princeton Instruments, which is a division of Roper Scientific, Inc. (Trenton, N.J., USA). The used CCD detector features a 2084×2084 array with 24×24 μm pixel size (chip size: 50×50 mm). The CCD was operated at −30° C. with 10° C. water-assisted cooling to reduce the thermally generated charge. Cosmic ray correction and background subtraction were performed on the 2D image before further data processing. The 2D image was integrated into the one-dimensional scattering function within a band of 10 mm. The measurement time was 30 min for each scattering curve (6 images of 5 minutes were taken to assist the cosmic ray correction).
# The molecular weight of the scattering aggregates were calculated according to Eq. 1:
# [formula] where M is the molecular weight, dΣ(0)/dΩ (cm^−1) the forward scattering intensity at q=0, c (g/cm^3) the β-casein concentration, NA the Avogadro number, and ΔρM (cm/g) the scattering length difference per mass, given by: ΔρM=Δρ ν (2)
# The scattering length difference Δρ (cm^−2) was calculated using the known chemical composition of the protein and the solvent, and ν (cm^3/g), the specific volume of the protein in the solution that was calculated via density measurement of the solvent and the solution. The micelle aggregation number was then calculated by dividing the molecular weight of the micelles determined with Eq. 1, by the molecular weight of a single protein molecule.
# For a particle of arbitrary shape with a scattering density difference of Δρ(r), the pair distance distribution function p(r) (PDDF) is given by: p(r)=r^2Δ ρ^2(r) (3) where Δ ρ^2(r) is the convolution square of Δρ(r) averaged for all directions in space. The PDDF is related to the scattered intensity l(q) by a Fourier transformation, and it enables the determination of the overall shape and size of the scattering objects.
# [formula] λ is the wavelength of the incident radiation and θ is the angle between the scattered and incident beam. The function ƒ(r)=p(r)/r (6) is useful to identify flat plate-like particles, although it has no direct physical meaning. For lamellae, this function starts with a linearly increasing part and becomes almost flat when r is equal to the thickness of the lamella. For flat particles with a finite base area, the outer part decreases linearly because of boundary losses. The thickness of the lamella can then be read from the transition point.
# The structural characteristics of the micelles in the two pH environments were studied by cryo-TEM and SAXS (Small Angle X-ray Scattering). Cryo-TEM was used to determine the shape of the micelles and to estimate their dimensions between 4 and 40° C. This information was further used to accurately calculate the micelles' dimensions from the SAXS data, and to study how the size and shape are affected by temperature. SAXS measurements also provided the critical micelle concentration (CMC) and the micelle aggregation numbers as a function of temperature. Experiments were performed in the concentration range of 0.1-40 mg/mL protein, at low pH (between 2.1 and 2.6) in dilute lactic acid solution (6 wt %) or HCl and in aqueous solutions at pH 6.7-7.3 in absence of salts or the presence of up to 0.1M NaCl.
# SAXS measurements were used to determine the shape and dimensions of the micelles at low pH more precisely, and to evaluate the micelle molecular weight (i.e., the aggregation number). The scattering curves of 20 mg/mL β-casein in lactic acid solution (pH 2.6, IS 0.0022) at different temperatures are shown in FIG. 3a. […]
# [3] = Wide-angle X-ray diffraction (XRD); conditions: powder / lyophilized specimen, 1:8 mole ratio where loaded
# Procedure: The operating conditions were CuKα radiation (0.154 nm), voltage 40 kV and current 40 mA, in 20 recording range from 3° to 65°, at room temperature.
# [4] = lactic acid solution pH 2.6, 4-40 °C
# [5] = 1 wt % β-casein, empty or loaded 1:8 protein:celecoxib, pH ~7
molecule,measurement,setting,value
B1,Solution density,[1]; 4 °C,1.01 g/mL
same,Solution density,[1]; 16 °C,1.009 g/mL
same,Solution density,[1]; 25 °C,1.007 g/mL
same,Solution density,[1]; 40 °C,1.002 g/mL
same,Maximum dimension of empty micelles (cryo-TEM),Cryo-TEM of micelles; hepes buffer pH ~7,about 22 nm
same,Micelle surface length (cryo-TEM),Cryo-TEM of micelles; [4],20-25 nm
same,Micelle thickness (cryo-TEM),Cryo-TEM of micelles; [4],3-4 nm
same,Maximum micelle dimension (SAXS PDDF),"[2]; 20 mg/mL, pH 2.6, all temperatures 4-40 °C",35-40 nm
same,Rg (from Guinier apr.),[2]; [5],7.8 nm
same,"V, from a, b",[2]; [5],2410 nm^3
same,Micelle Dimensions: diameter,"[2]; pH 2.6, 4-40 °C",25 nm in
same,Micelle Shape,"[2]; pH 2.6, 4 °C",disc
same,Nagg,"[2]; pH 2.6, 4 °C",8
same,Nagg,"[2]; pH 2.6, 4 °C, concentrations of 0.5 wt % and below",approximately 2
same,Micelle Shape,"[2]; pH 2.6, 16 °C",disc
same,Nagg,"[2]; pH 2.6, 16 °C",10
same,Micelle Shape,"[2]; pH 2.6, 25 °C",disc
same,Nagg,"[2]; pH 2.6, 25 °C",11
same,CMC,"[2]; pH 2.6, 25 °C, by SAXS",0.1-0.2 wt %
same,Micelle Shape,"[2]; pH 2.6, 40 °C",disc
same,Nagg,"[2]; pH 2.6, 40 °C",9
same,Solid form by X-ray diffraction,[3],amorphous pattern
